From patent publication US20230190901A1 (published 2023)

T1: MAGEC2 peptide on HLA-A*02 (human)
T1 peptide: FVYGEPREL

T2: MAGEC2 peptide on HLA-A*02 (human)
T2 peptide: ALIEVGPDHFCV


Molecular target: T1, MAGEC2 peptide on HLA-A*02
Assay: binding, other

binding result | Binder
recognises | TCR of SEQ ID NOs 32 and 33 (TCR, V domains shown) Valpha: KQEVTQIPAALSVPEGENLVLNCSFTDSAIYNLQWFRQDPGKGLTSLLLIQSSQREQTSGRLNASLDKSSGRSTLYIAASQPGDSATYLCAVREWDARLMFGDGTQLVVKP Vbeta: NAGVTQTPKFQVLKTGQSMTLQCAQDMNHNSMYWYRQDPGMGLRLIYYSASEGTTDKGEVPNGYNVSRLNKREFSLRLESAAPSQTSVYFCASSLLRGWTEAFFGQGTRLTVV
recognises | TCR of SEQ ID NOs 36 and 37 (TCR, V domains shown) Valpha: KQEVTQIPAALSVPEGENLVLNCSFTDSAIYNLQWFRQDPGKGLTSLLLIQSSQREQTSGRLNASLDKSSGRSTLYIAASQPGDSATYLCAVTGGTSYGKLTFGQGTILTVHP Vbeta: NAGVTQTPKFRILKIGQSMTLQCTQDMNHNYMYWYRQDPGMGLKLIYYSVGAGITDKGEVPNGYNVSRSTTEDFPLRLELAAPSQTSVYFCASSYWAGVLTEAFFGQGTRLTVV
recognises | TCR of SEQ ID NOs 34 and 35 (TCR, V domains shown) Valpha: KQEVTQIPAALSVPEGENLVLNCSFTDSAIYNLQWFRQDPGKGLTSLLLIQSSQREQTSGRLNASLDKSSGRSTLYIAASQPGDSATYLCAVTGNTPLVFGKGTRLSVIA Vbeta: NAGVTQTPKFQVLKTGQSMTLQCAQDMNHEYMSWYRQDPGMGLRLIHYSVGAGITDQGEVPNGYNVSRSTTEDFPLRLLSAAPSQTSVYFCASSYSPYYEQYFGPGTRLTVT

Molecular target: T2, MAGEC2 peptide on HLA-A*02
Assay: binding, other

binding result | Binder
recognises | TCR of SEQ ID NOs 26 and 27 (TCR, V domains shown) Valpha: KQEVTQIPAALSVPEGENLVLNCSFTDSAIYNLQWFRQDPGKGLTSLLLIQSSQREQTSGRLNASLDKSSGRSTLYIAASQPGDSATYLCAVVDSWGKLQFGAGTQVVVTP Vbeta: NAGVTQTPKFQVLKTGQSMTLQCAQDMNHNSMYWYRQDPGMGLRLIHYSVGAGITDQGEVPNGYNVSRSTTEDFPLRLLSAAPSQTSVYFCASSPWGGATEAFFGQGTRLTVV
recognises | TCR of SEQ ID NOs 28 and 29 (TCR, V domains shown) Valpha: KQEVTQIPAALSVPEGENLVLNCSFTDSAIYNLQWFRQDPGKGLTSLLLIQSSQREQTSGRLNASLDKSSGRSTLYIAASQPGDSATYLCAVKGRGTYKYIFGTGTRLKVLA Vbeta: NAGVTQTPKFRVLKTGQSMTLQCAQDMNHNSMYWYRQDPGMGLRLIYYSASEGTTDKGEVPNGYNVSRLNKREFSLRLESAAPSQTSVYFCASSYYGGSGAGYEQYFGPGTRLTVT
recognises | TCR of SEQ ID NOs 30 and 31 (TCR, V domains shown) Valpha: KQEVTQIPAALSVPEGENLVLNCSFTDSAIYNLQWFRQDPGKGLTSLLLIQSSQREQTSGRLNASLDKSSGRSTLYIAASQPGDSATYLCAVNEGSNYKLTFGKGTLLTVNP Vbeta: NAGVTQTPKFRILKIGQSMTLQCTQDMNHNYMYWYRQDPGMGLKLIYYSVGAGITDKGEVPNGYNVSRSTTEDFPLRLELAAPSQTSVYFCASSYSSPHYGYTFGSGTRLTVV
